Reference: article PMC8950404, “Signal Sequence-Dependent Orientation of Signal Peptide Fragments to Exosomes” (International Journal of Molecular Sciences, 2022)

Target: T1, recombinant human calmodulin (CALM) 1/2/3 (human, UniProt P0DP23 1-149)
T1 construct: human calmodulin, printed as calmodulin (CALM) 1/2/3; also called His-tagged CALM; source: bought: Abcam; not shown: His tag, N-terminal, kept
Assay: pull-down; hAPP SP (9–17) 500 nM mixed with N-terminally His-tagged CALM 1 μg/mL in xTractor buffer, with or without CaCl2 500 μM, overnight at 4 °C; CALM separated on a Capturem His-Tagged Purification Miniprep; bound peptides read by MALDI-TOF MS/MS
Conditions: both partners purified

B1: hAPP SP (9–17) (peptide)
peptide: LLAAWTARA
notes: residues 9-17 of the signal peptide of human amyloid precursor protein (APP); also called C-terminal fragment of APP SP; source: synthetic peptide, bought: Eurofins Scientific
binding result: binds

B2: C-terminal fragment of APP SP (LAAWTARA) (peptide)
peptide: LAAWTARA
notes: stretch of the signal peptide of human amyloid precursor protein (APP), one residue shorter than hAPP SP (9–17); also called exosomal SP fragment
binding result: binds
